Source: patent publication US20140314775A1

Molecular target: human recombinant adrenomedullin receptor (CRLR+RAMP3) (Homo sapiens)

EC50 (read off the curve): 1 nM
Substance: human Adrenomedullin (hADM 1-52) (peptide)
